Consider 1 molecule from publication doi:10.1101/2022.09.07.506877.

This data set has as its target Sb-gRAMP (type III-E CRISPR effector, Cas7-11);TPR-CHAT (caspase-like peptidase) (Candidatus "Scalindua …, UniProt A0A0B0EGF3;A0A0B0EKL4 1-1717;1-716, |). The data set is described as follows: cryo-EM structure.

B1: crRNA (37 nt) / target ssRNA (18 nt as modelled) (structured_RNA)
RNA 1: GGACUUAAUGUCACGGUACCCAAUUUUCUGCCCCGGA
RNA 2: UCCGGGGCAGAAAAUUGG
Turning to B1, the binding result was “binds”.
